The results in this text go back to article PMC5481773, “Structural insights into the function of ZRANB3 in replication stress response” (Nature Communications, 2017).

The test has as its target T1, His-tagged Proliferating Cell Nuclear Antigen (PCNA) (human, UniProt P12004 1-261).
T1 construct: human PCNA, cloned into the NdeI and XhoI sites of pET28a for expression with an N-terminal His-tag; Used for ITC and for the peptide pull-downs; also called His-tagged PCNA; His-tagged recombinant PCNA; source: E. coli, from pET28a, purified (Ni-NTA, Q-sepharose, Superdex S-200); not shown: His tag, N-terminal, kept
The test can be described thus: ITC; 15 μM PCNA in the cell, peptides injected stepwise (20 injections of 2 μl), 25 °C, PBS with 1 mM β-mercaptoethanol, single set of independent binding sites model. The settings on record: both partners purified. (In general: In ITC the heat of successive injections is recorded.)

T1 sequence (P12004 whole entry): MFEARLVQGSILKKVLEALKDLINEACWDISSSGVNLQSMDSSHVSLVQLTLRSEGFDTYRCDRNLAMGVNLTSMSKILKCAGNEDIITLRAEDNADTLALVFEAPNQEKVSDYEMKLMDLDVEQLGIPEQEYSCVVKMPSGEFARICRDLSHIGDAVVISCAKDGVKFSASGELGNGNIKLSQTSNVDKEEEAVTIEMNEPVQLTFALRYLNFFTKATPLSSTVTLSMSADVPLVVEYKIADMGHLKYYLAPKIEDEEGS

As usually defined, the Kd is the concentration at which binding is half-saturated. A lower Kd goes with tighter binding. As usually defined, the stoichiometry N is the number of molecules, sites or subunits per partner or assembly. Regarding SKHGSDITRFLVKK [ZRANB3 APIM motif synthetic peptide used for ITC], binding was put at a Kd of 9.24 µM and the “stoichiometry N” value worked out at 1 peptide per PCNA monomer.
On to EKEKQHDIRSFFVPQ [ZRANB3 PIP box synthetic peptide used for ITC], for which the Kd was determined as 4.8 µM and the “stoichiometry N” value was determined as 1 peptide per PCNA monomer.
